Assay results published in patent publication US6416738B1, “Pretargeting methods and compounds” (NeoRx Corporation, priority 1973, dated 2002).

Tests used:
[1] = Human clinical trials of NR-LU-10; format: in vivo; settings: over 565 patients
Procedure: The hybridoma secreting NR-LU-10 was developed by fusing mouse splenocytes immunized with intact cells of a human small cell lung carcinoma with P3×63/Ag8UI murine myeloma cells. After establishing a seed lot, the hybridoma was grown via in vitro cell culture methods, purified and verified for purity and sterility.

NR-LU-10 antigen = target: T1, NR-LU-10 antigen (Homo sapiens, UniProt P16422); assay: NR-LU-10 tumor tissue reactivity (Table A); format: binding
T1 construct: Positive NR-LU-10 tissue reactivity indicates NR-LU-10 antigen expression by such tissues; from tissue; host or cells: carcinoma and normal tissue specimens
T1 sequence (P16422 24-314): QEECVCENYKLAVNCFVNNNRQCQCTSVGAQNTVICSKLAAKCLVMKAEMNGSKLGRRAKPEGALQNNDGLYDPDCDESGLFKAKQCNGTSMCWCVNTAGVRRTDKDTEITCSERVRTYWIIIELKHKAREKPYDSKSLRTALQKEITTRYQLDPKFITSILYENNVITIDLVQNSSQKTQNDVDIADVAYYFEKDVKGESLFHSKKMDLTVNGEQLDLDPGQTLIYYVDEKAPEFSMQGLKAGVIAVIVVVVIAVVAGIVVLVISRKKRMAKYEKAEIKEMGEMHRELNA
From the text: Radioimmunoassays, immunoprecipitation and Fluorescence-Activated Cell Sorter (FACS) analysis were used to obtain reactivity profiles of NR-LU-10. The NR-LU-10 target antigen was present on either fixed cultured cells or in detergent extracts of various types of cancer cells. For example, the NR-LU-10 antigen is found in small cell lung, non-small cell lung, colon, breast, renal, ovarian, pancreatic, and other carcinoma tissues. Tumor reactivity of the NR-LU-10 antibody is set forth in Table A, while NR-LU-10 reactivity with normal tissues is set forth in Table B. The values in Table B are obtained as described below. Positive NR-LU-10 tissue reactivity indicates NR-LU-10 antigen expression by such tissues.

B1: NR-LU-10: 150 kilodalton IgG2b monoclonal antibody recognizing an approximately 40 kilodalton glycoprotein antigen expressed on most carcinomas (antibody, V domains shown)
VH: EVQLQQSGAELVKPGASVRLSCTASGFNIKDTYMHWVIERPEQGLEWIGRIDPANGNTKCDPKFQGKATITADTSSNTAYLQLSSLTSEDTAVYYCSREVLTGTWSLDYWGQGTSVTVSS
VL: DIQMIQSPSSMFASLGDRVSLSCRASQGIRGNLDWYQQKPGGTIKLLIYSTSNLNSGVPSRFSGSGSGSDYSLTISSLDSEDFADYYCLQRNAYPYTFGGGTKLEIK
[1]
  safety in human clinical trials: safely administered
NR-LU-10 antigen; Breast Adenocarcinoma
  # Pos/Exam: 23/23
  Intensity Avg. (rated 0-3): 2.9
  Percent Avg. (cells stained): 97%
  Uniformity Avg. (rated 0-3): 2.8
NR-LU-10 antigen; Colon Carcinoma
  # Pos/Exam: 12/12
  Intensity Avg. (rated 0-3): 2.9
  Percent Avg. (cells stained): 98%
  Uniformity Avg. (rated 0-3): 2.9
NR-LU-10 antigen; Liposarcoma
  # Pos/Exam: 0/2
  Intensity Avg. (rated 0-3): 0
  Percent Avg. (cells stained): 0%
  Uniformity Avg. (rated 0-3): 0
NR-LU-10 antigen; Lung Adenocarcinoma
  # Pos/Exam: 8/8
  Intensity Avg. (rated 0-3): 3
  Percent Avg. (cells stained): 100%
  Uniformity Avg. (rated 0-3): 2.2
NR-LU-10 antigen; Lung Small Cell Carcinoma
  # Pos/Exam: 2/2
  Intensity Avg. (rated 0-3): 3
  Percent Avg. (cells stained): 100%
  Uniformity Avg. (rated 0-3): 2
NR-LU-10 antigen; Lung Squamous Cell Carcinoma
  # Pos/Exam: 8/8
  Intensity Avg. (rated 0-3): 2.3
  Percent Avg. (cells stained): 73%
  Uniformity Avg. (rated 0-3): 1.8
NR-LU-10 antigen; Lymphoma
  # Pos/Exam: 0/2
  Intensity Avg. (rated 0-3): 0
  Percent Avg. (cells stained): 0%
  Uniformity Avg. (rated 0-3): 0
NR-LU-10 antigen; Malignant Melanoma
  # Pos/Exam: 0/11
  Intensity Avg. (rated 0-3): 0
  Percent Avg. (cells stained): 0%
  Uniformity Avg. (rated 0-3): 0
NR-LU-10 antigen; Malignant Melanoma Ocular
  # Pos/Exam: 0/2
  Intensity Avg. (rated 0-3): 0
  Percent Avg. (cells stained): 0%
  Uniformity Avg. (rated 0-3): 0
NR-LU-10 antigen; Osteosarcoma
  # Pos/Exam: 1/1
  Intensity Avg. (rated 0-3): 2
  Percent Avg. (cells stained): 20%
  Uniformity Avg. (rated 0-3): 1
NR-LU-10 antigen; Ovarian Carcinoma
  # Pos/Exam: 35/35
  Intensity Avg. (rated 0-3): 2.9
  Percent Avg. (cells stained): 100%
  Uniformity Avg. (rated 0-3): 2.2
NR-LU-10 antigen; Pancreas Carcinoma
  # Pos/Exam: 6/6
  Intensity Avg. (rated 0-3): 3
  Percent Avg. (cells stained): 100%
  Uniformity Avg. (rated 0-3): 2.3
NR-LU-10 antigen; Prostate Carcinoma
  # Pos/Exam: 9/9
  Intensity Avg. (rated 0-3): 2.8
  Percent Avg. (cells stained): 95%
  Uniformity Avg. (rated 0-3): 2
NR-LU-10 antigen; Renal Carcinoma
  # Pos/Exam: 8/9
  Intensity Avg. (rated 0-3): 2.2
  Percent Avg. (cells stained): 83%
  Uniformity Avg. (rated 0-3): 1
NR-LU-10 antigen; Synovial Sarcoma
  # Pos/Exam: 0/1
  Intensity Avg. (rated 0-3): 0
  Percent Avg. (cells stained): 0%
  Uniformity Avg. (rated 0-3): 0
NR-LU-10 antigen; Undifferentiated Carcinoma
  # Pos/Exam: 1/1
  Intensity Avg. (rated 0-3): 2
  Percent Avg. (cells stained): 90%
  Uniformity Avg. (rated 0-3): 2
NR-LU-10 antigen; Uterine Leiomyosarcoma
  # Pos/Exam: 0/1
  Intensity Avg. (rated 0-3): 0
  Percent Avg. (cells stained): 0%
  Uniformity Avg. (rated 0-3): 0
